Data published in the DeepSol protein solubility set.

Assay: soluble on expression in E. coli; label from the status in PepcDB or PDB records

Sequence	soluble on expression in E. coli
GPGSMPYIRMAYEKAISDVPADTLDKVKAVLSALEEVLSVRTFLVGERLTIADVAVAFSIHWVYRCNRKHGQTLYKEYRAVYRHYNTVMRHPKIHAMMRKEGAAIGPLRS	not soluble
VNKLSPRFEINEGTYSSFAVAQEGAAPGAGEVRTHRIAVGLYSLIDGSVTRTHRVELDVDSELTEVPELVGVPAADLVIVNDDDLTYCLMQLDPASLAFVVENIDKIADPMARTLCWSAAWEMTRDGSMRARDFVRLIARGAQAETEIAVLERVLMQASRALSSYVDPQWAEQEGSALLADAMLQAARELEPGSDAQLAFVQALAKVKLTDEAAAEFALIAKGSTSLPGVVVDSDLRWWALTALIARGDVPAAEVEQRIAQLLALDKSSAGELAALRAYAAQPSQDVKAKIFAQITDPANSLSNLYLRHKLEGLQFAGSAPYLEQFSESVFELVEPLWKALSSEVAAVTVTGIYPSWDVSAESVERAHAFLDAHPDLPGAARRIISEGAAGQERAVRLRAIDAA	not soluble
MANVYTAEATATGGRAGTTRSSDDRLNLDLSVPAEMGGDGGPGTNPEQLFAAGYAACFQGALGVVSRRNKIDVPADSTITARVGLQKAGLAFALDVELEGHFPGLSREQAEGLMHAAHEVCPYSAATRNNVDVRLKVRE	soluble
MSLGDFSELARVNGEPVYVKEYKMKLLSNTTEVINYFSQSYAVETKENFRTDSYSGEAPVEMARKKALDDIVEVKVQQILAKEKGIIESTDYREFLKELENENRQRKDALKSNKVVYGPDNYGEIEYFNYSFDNMVSKLKEKLKENELSIPEEKLESMYNLLKDTRFKLPDDIKIQVISIGFTDEKGIINDDLKSKARVKIEEAKKRIDNGEPFEEVALDYNPKSGVLEYVFTKEKQMAKDISHPELLDEALKLKPGQVSEIIERSTDFVLILCKEKKSTGYLPYKDARKQLLDELIEKDYQEYIDKLVEQADVKINEKLYRRINVNEGHHHHHH	soluble
MDFKQHIAIVPDYPKEGIVFKDITPLMNDGKAYKAATDAIVEYAKERDIDLVVGPEARGFIIGCPVSYALEVGFAPVRKLGKLPREVITVDYGKEYGKDVLTIHKDAIKPGQRVLITDDLLATGGTIEATIKLVEELGGVVAGIAFLVELTYLDGRKMLDGYDVLVLEKY	not soluble
MAGDPMADQEANAEQPMPKAEQKKPEKKAVQVQKKEDDTSAWIKTEKPAKLPILMYHSISSGNSLRVPKKEFEAHMKWLHDNGYQTLTPKEASLMLTQDKKPSEKCVLITFDDGYTDNYQDAYPVLKKYGMKATIFMIGKSIGHKHHLTEEQMKEMAQHGISIESHTIDHLELNGLTPQQQQSEMADSKKLFDNMFHQQTTIISYPVGRYNEETLKAAEKTGYQMGVTTEPGAASRDQGMYALHRVRVSPGMSGSAFGAYIESMKLEHHHHHH	soluble
HENPEGIIRIYASTTPGEHILPSIIKEYKSSYKNVDFEITITDSERCFKALDEGLADIAAVGYLKNKNYEYTIIGKDRLVLIVPPNHPLAEKGTAKLEDILKEDYIDREEGSGTREAFIKALNDKGYSIMDLNVVMRLGSHSAVI	not soluble
MTDVVVAGGGLAGLVAARHLAESGRDVTVFEQRSDVGGRVRTVHEDGYTFDRGFQVMFTAYPAAKRELDIEALAPRTFTPGATIASPNHRSVLSDPLRNPSAAPQTLLNTDVRTADKLRLFRLQRELAGVEPVELLSRGGTTIREYLADYGFSKRFVERFAAPFYGGITLDRSLGTDSSIFEYTYKMLSEGEIFVPADGMQAMPRQLADRARSAGATIETDAPVTELETHEGEVTAEVGRETVTAESAVVATDPQTAAELTDIDAIPTEPVGCVTQYFALPTNRAPATGQRIILNATDDRPNTVAPLSAVASEYAPAGMELYSATFLGTPEEDDAELAAEVRAALQSWYPNASFEALELLRTDRVPLSQFAQPPGYRDALPDPTAPEGNAVLAGDYTRWSAIQGALESGKVAADLLRLEHHHHHH	not soluble
MSELNLSPDKLTVLLMGGSFGAGNIKETLDELLDTDRDFQILVITGKNESLKEKIEKKLMSRYHDKNVCVLGYTDKMNDILASIDVLVSKPGGLTTTEALLKDVPMIVPYYIPGQEEENLDFLSNCGAALRTTKKYNLSILLKVLIDDPSRLEMLKRNIKSIRKSNSAQNIANLILNIISGLEHHHHHH	not soluble
MAIRIAINGFGRIGRSVLRALYESGRRAEISVVAINELASAEGMAHLLKYDSSHGRFAWDVRQECDSLYVGDDIIRLIHQSEIEQLPWSELGIDVVLDCSGVYGSREDGEAHVASGAKKVLFAHPGGHDLDATVVYGVNHQDLRAEHRIVSNASCTTNCIIPIIQLLDIAYGIESGTVTTIHSSMNDQPVIDAYHQDLRRTRAASQSIIPVDTKLAAGITRIFPKFCDRFEAISVRVPTINVTAIDLSVSVTHPVGVAEVNQLLQKAARGAFRGIVDYTELPLVSMDFNHDPHSAIVDGTQTRVSGQHLIKTLVWCDNEWGFANRMLDTTLAMAKSGF	not soluble
MSLDNDIFKLNVYIKNIDTSKSNLRYTEGYLQSLTNILTRAKEIAIQGASGTYESDDKKMISKEVNALLEDVVAIANAKGPDGYSIFSGTKIDSEAFKVTRENKISKTSKDGAGPQIIKVEYNGNQAEKKTEVYNDIHMSNNYPGNVIFFLQNQNIISSINTNGFAVKENTKIYIDNIEIGLTAGDTALDIVAKINESSAPVEASIDPVLNSLSIKTTTPHQIWITEEKESNVLQTLGILTKNNDTKLPPYNLSSSTEVRSRSIFDALIELRDTLYNNKEELVGSRSLAEIDESLKRLLISVADLGAKENRLDRSYERISKEAADMKEDMIQYTDLDVTKAITNLNMASLAYQVSIGISAKIMQTTLLDFIKEGHHHHHH	not soluble
MGSDKIHHHHHHMINQVYQLVSPRQFEATFKTIDLHNHNSKVIVRPLYLSICAADLRYYCGNRDSKILSKKLPMSLIHESVGEIVYDSEHRLKNGTKVVMIPNTPSKSHNIIAENYLTSSHFKSSGYDGFMQDYIVMKPDRVVTLPQEIDLSVASYTELVTVSVHAIDRFQSKAIPQFESLGIWGDGNLGYITAVLLKKLYPTTKIIVFGKTLYKLSRFSFVDEIIQIDNIPQHIKIDHAFECVGGKGSQQAIEQIINIINPEGSIALLGVSELPIQVNTRMVLEKGLTIIGSSRSGLKDFEKTIELYRKYPEVLNQLALLKGKEFEINTIEDLITAFEYDISNAWGKTVLKWNI	not soluble
MNLYRLLKQREADQKPLRVALIGAGKFGSMFLSQVQRTPGMRLVAVADLAPDRARAALTRVGWPAAALNADTIHHAVKTGKVYFSDDVRSVSVDPEVEIVIDATGQAAAGIEHVLTCCEYGKHII	not soluble
IGAVNYSIGANIATNKNKITNLGGSDNIIQTSSYIVKYILKKGESIGSFYGFKTDGLYTQADIDAGHYYTLSGVVPNAGDIKFVPQRDIEYKQEITDEDRTILGKDVPDFTYGVNLSLQYKGFEFSMFGQGISGTKVAFDVYGVHPFYHGQDSPRKYHLKRWTEENPNPHAAYPRIYSASSVHTTYNRNFSDYHLFDSDYFRFKTLSLGYTVPSATVKNWGLQSLKVYVTGENLFTVRADKKMEDFDPETAGGVIYTLGTKSVAFGVNISF	not soluble
MGSDKIHHHHHHMNAPNSQKILFAITKKSQQDGRSFPTIIRVLKRIGSCAPQGVFQMLHWKPEYLRAFVSERSPQKLFDIAVHLAQDLDMDYLGLNIRIQIATQTPRLYLYSNYPSEWIERYQRDDFYKQDPAANLSHSSTMPVLWTDELYKEAPQFREMACLYGLRHGWTQSLHDQQHNESQISVARPNGPIDEVELYDKAGSVQWLCHTLHAVLGEHHLNALCPPQPKMSERELEVLKWSAAGKTAADVASILSLSQSTVNFHIRSVITKTNAANKAGAIAIAALRGWI	not soluble
MAHHHHHHMYVLEGFYESVYNARWHHVVEVPDGEGTGMEVREGKSPQSWTYRAAGEFLEKNDGEEQSGALRPRLMVLTSGKGWPYSWEEDESTPDCYVNCEVDRVWQIVRNDLTELLGPDPGADFRPERRVLIGTPGIGKSLAAGSYLLYQLLQYDAEQLPMVAYVFAGRK	not soluble
MSLKITEIETLRPEEFPNLLWVLVHTDEGITGLGETFYGACSAEAYIHEWAANRLIGEDPLQIDRHAKRLSGYLGFRSAGAEMRGNSALDIALWDIFGKATGQPIYQLLGGKCRDTIRTYNTCAGPHYVRTAKQQSVANWGLANSVSARYDDLNAFLHRADELALDLLDSGITAMKIWPFDPYAEASDGYYISKSDLKRALEPFEKIRRAVGDKMDVMVEFHSLWNLPPALQIAEALREYETFWHEDPIRMDSLSSLKRYAERSLAPVCASETLATRWGFRDLLETNAAGIVMLDISWCGGLSEARKIASMAEAWHLPVAPHDCTGPVVLTASTHLSLNAPNALVQESVRAFYDGWYRDLVTALPTVKDGHITVPDGPGLGLELMPDIRERLTIAVRNTSDCEGHHHHHH	soluble
MAHHHHHHMDAVKRHSQSTWPVSMPPLHAGTQEERMTGEEAGSSTKHTEGTNDRREKHRHGPHPGRRLHTSPHTHTHHRSAVSLRVRGFGPPHNKRTHRQQLTTNDKEEKRHTAATVSSSVPRPTGYGHSPAANTQHARSKLSHKVPHAEAGPHPPMTRRLTPCGHTECTDSPIERIRRPSLKAASVIDGP	soluble
MSLSIFEHFQARYEAAKDEELSIQDFLALCKENKSAYANAAERLLLAIGEPEMIDTSKHSRLSRIFSNRVIARYKTFEDFYGMEEAIEQIVAYLKHAAQGLEERKQILYLLGPVGGGKSSLAEKLKALMQQMPIYVLSANGQRSPVNDHPFCLFDVNEDGELLKQEYGIDRRYLRSIMSPWAAKRLHEFGGDITKFKVVKVRPSILDQIAVAKTEPGDENNQDISSLVGKVDIRKLEHFSQDDPDAYSYSGALCRANQGLMEFVEMFKAPIKVLHPLLTATQEGNYNGTEGLSALPFDGMILAHSNESEWQTFRNNKNNEAFLDRVYIVKVPYCLRVSEEVKIYQKLLDHSELSKAPCAPSTLDLLAQFSVLSRLKVPENSSLFSKMRVYDGETLKDTDPKAKSYQEYRDYAGVDEGMSGLSTRFAFKILSRVFNFDHSEVAANPVHLFYVIEQQVEREGHHHHHH	not soluble
MYEGEIAIGPVHSTMLEPHRLRLFIEDEIVKDAELTIGVNHRGVERLMEGLPVEKACILCEKICGICSHIHLWSAARVAEIGCNIEVPERANHIRIIVEELERLHSHTLLFGHAFEILGHETMSMRCFMLREPIMQVFFEISGSRVHYSCPIIGGIRPRCNISETQISHIHDKISQYEEGLTKFIERMLNDPMIISRVKDVGVMDRKTAAKFHAVGPTARGSNVKSDMRKWGWVPEYDPYDFDEILFDSGDVFARLAVRFYECLESVKIIRQALDALKDTSDKRIYNPNYELNEFKPINCYTEAQRGEQYYSYGLDDEGLVRQAKIRTPTATNLGAMEDIVKGYHVSDAELIIASCDPCFTCTDRLMVLKEPFKK	not soluble
METAKEMTRESLPIKCLEAVILGIYLTNGQPSIERFPISFKTYFSGNYFHHVVLGIYCNGRYGSLGMSRRAELMDKPLTFRTLSDLIFDFEDSYKKYLHTVKKVKIGLYVPHEPHSFQPIEWKQLVLNVSKMLRADIRKELEKYARDMRMKGLCSH	soluble
MVKRTVATNGDASGAHRAKKMSKTHASHIINAQEDYKHMYLSVQPLDIFCWGTGSMCELGLGPLAKNKEVKRPRLNPFLPRDEAKIISFAVGGMHTLALDEESNVWSWGCNDVGALGRDTSNAKEQLKDMDADDSSDDEDGDLNELESTPAKIPRESFPPLAEGHKVVQLAATDNMSCALFSNGEVYAWGTFRCNEGILGFYQDKIKIQKTPWKVPTFSKYNIVQLAPGKDHILFLDEEGMVFAWGNGQQNQLGRKVMERFRLKTLDPRPFGLRHVKYIASGENHCFALTKDNKLVSWGLNQFGQCGVSEDVEDGALVTKPKRLALPDNVVIRSIAAGEHHSLILSQDGDLYSCGRLDMFEVGIPKDNLPEYTYKDVHGKARAVPLPTKLNNVPKFKSVAAGSHHSVAVAQNGIAYSWGFGETYAVGLGPFEDDTEVPTRIKNTATQDHNIILVGCGGQFSVSGGVKLSDEDAEKRADEMDD	soluble
